Experimental data published in patent US20210395761, “SERINE RECOMBINASES MEDIATING STABLE INTEGRATION INTO PLANT GENOMES” (GREENVENUS, LLC, published 2021).

Tests used:
[1] = target: T1, SPβc2 serine recombinase (SPβc2-HA-NLS) (Bacillus subtilis phage SPβc2, UniProt O32006 SEQ:1-545); assay: cell_activity; partner attP vector; conditions: tags: C-terminal HA and SV40 NLS
Text: In addition to the 20 GFP-positive kanamycin-resistant regenerated events, 35 GFP-positive kanamycin-resistant calli were also sampled for gDNA extraction and insertion analysis. These events were not analyzed by qPCR for NPT-II copy number due to the likelihood of circular non-integrated plasmid being present in the callus tissue. The 55 unique GFP-positive kanamycin-resistant attP/SPβc2 events were screened by end-point PCR for the right gDNA:insert junction (SpecR side) for each of the 7 previously identified integration sites. Four of the 7 insertion sites were identified in multiple unique events with one of the integration sites found in 8 events including the 2 events in which it was identified by next-gen sequencing (Table 13). Sanger sequencing of amplicons from both left and right gDNA:insert borders for 3 of the events with integrations in site 7493878 identified a lbp difference in the insert:gDNA recombination site compared to the originally identified borders (FIG. 20 C-E). As was done in Benthi, the population was also screened for presence of the recombinase expression construct (ID363); it was found in 2 out of the 20 regenerated attP/SPβc2 events (data not shown).

[2] = target: T1, SPβc2 serine recombinase (SPβc2-HA-NLS); assay: cell_activity; partner attP vector; conditions: tags: C-terminal HA and SV40 NLS; remark: listed apart in the source
Method: Wild tobacco relative Nicotiana benthamiana (Benthi) events were generated through co-transfection of a SPβc2 expression vector (or control filler vector: CAT) plus a target integration vector containing GFP, NptII, and a SPβc2 attachment site (attP, attB, or site-less control). Colonies were regenerated in the presence of a kanamycin gradient to detect NptII and the presence of GFP was determined through illumination with a blue “biolight” together with an appropriate filter (FIG. 1). […] Enhanced regeneration of transgenic colonies varied between 10 and 65 fold and was dependent on the Kanamycin concentration used for selection. […] Very few GFP-positive kanamycin-resistant colonies arose from the attB/SPβc2 or Siteless/SPβc2 conditions, indicating a dependence on the attP site for interaction with plant pseudo-attB sites. […] A total of 126 plants from 91 unique calli events were regenerated, transplanted into soil, and carried forward to seed collection (Table 7).
To determine whether any of the sites identified by GenomeWalker were preferentially utilized for integration by the SPβc2 recombinase, 64 attP/SPβc2 regenerated events were screened by end-point PCR for amplification of the left (35S side) gDNA:insert border.

T1 sequence (O32006 whole entry): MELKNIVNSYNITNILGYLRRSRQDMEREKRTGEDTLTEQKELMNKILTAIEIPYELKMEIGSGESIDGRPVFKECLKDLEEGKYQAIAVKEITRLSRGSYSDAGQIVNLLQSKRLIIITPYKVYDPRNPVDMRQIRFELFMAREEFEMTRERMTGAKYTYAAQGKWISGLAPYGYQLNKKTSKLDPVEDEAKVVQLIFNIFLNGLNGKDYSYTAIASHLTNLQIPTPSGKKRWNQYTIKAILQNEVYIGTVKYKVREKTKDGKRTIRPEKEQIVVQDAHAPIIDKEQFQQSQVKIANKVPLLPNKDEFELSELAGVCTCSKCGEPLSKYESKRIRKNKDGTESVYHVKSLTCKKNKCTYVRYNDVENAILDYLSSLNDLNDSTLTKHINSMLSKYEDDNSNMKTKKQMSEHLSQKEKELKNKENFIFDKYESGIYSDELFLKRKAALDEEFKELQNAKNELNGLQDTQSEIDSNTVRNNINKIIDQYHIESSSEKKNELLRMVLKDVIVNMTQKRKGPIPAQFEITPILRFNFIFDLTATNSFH

B1: lettuce pseudo-attB 115327723 (dsDNA)
DNA 1: TATTTGTGATGTGACATGACAAATAATGATGTTACAATATTATGTACCTCTAAATGAGATCTAGCATTGAAGATTGCATGAATATTCTTGAGTGTGTTATT
DNA 2: AATAACACACTCAAGAATATTCATGCAATCTTCAATGCTAGATCTCATTTAGAGGTACATAATATTGTAACATCATTATTTGTCATGTCACATCACAAATA
[1]
  activity: 1 integration events

B2: N. benthamiana pseudo-attB Niben101Scf11415 (dsDNA)
DNA 1: CTAATATACATTGACAGTGTTAAAAAAAATCTATTAACGACAATATAGAGAAGAGAGTACTTACATGAATGACGTCTACTTTGACTCCGTCAATTCCAAC
DNA 2: GTTGGAATTGACGGAGTCAAAGTAGACGTCATTCATGTAAGTACTCTCTTCTCTATATTGTCGTTAATAGATTTTTTTTAACACTGTCAATGTATATTAG
[2]
  activity: 1 integration events

B3: lettuce pseudo-attB 310607752 (dsDNA)
DNA 1: CACAAAAAATTGACCATTTCTAGCAACTTCCTATGATACGTTGATACTTTCTAAACATTAATTACAATGACAAAATGAAGTCTACCAAATCATTCATAGA
DNA 2: TCTATGAATGATTTGGTAGACTTCATTTTGTCATTGTAATTAATGTTTAGAAAGTATCAACGTATCATAGGAAGTTGCTAGAAATGGTCAATTTTTTGTG
[1]
  activity: 1 integration events

B4: N. benthamiana pseudo-attB Niben101Scf00732 (dsDNA)
DNA 1: not shown
DNA 2: not shown
[2]
  activity: 1 integration events

B5: N. benthamiana pseudo-attB Niben101Scf13522 (dsDNA)
DNA 1: GGATAAGGGAGGGTTTAGATATTTTGAAAGGGTTAAGGGGTAAAATCACTAAGGGGGAATTAACAATGCACACTAGGGTTGCCTTAAAAGTGCCTATATA
DNA 2: TATATAGGCACTTTTAAGGCAACCCTAGTGTGCATTGTTAATTCCCCCTTAGTGATTTTACCCCTTAACCCTTTCAAAATATCTAAACCCTCCCTTATCC
[2]
  activity: 2 integration events

B6: lettuce pseudo-attB 13364626 (dsDNA)
DNA 1: TGAATTTCTTATGAAGGTTACAACGCATCGTGGATTACAAGCAATTCTGTTTAGTCTGTTATGTTGTTGAATTTGAATGGATCTTGTCCTCAGTTACTCA
DNA 2: TGAGTAACTGAGGACAAGATCCATTCAAATTCAACAACATAACAGACTAAACAGAATTGCTTGTAATCCACGATGCGTTGTAACCTTCATAAGAAATTCA
[1]
  activity: 1 integration events

B7: N. benthamiana pseudo-attB Niben101Scf00773 (dsDNA)
DNA 1: ACATGGAGCAATGATGGAGAAAAATGGTGGTCATTACTACTGAAGTTGTCAAAGCAAAGCTGTCAGGTAACATCAAATGATCTCTAAATCAATTAGTCTT
DNA 2: AAGACTAATTGATTTAGAGATCATTTGATGTTACCTGACAGCTTTGCTTTGACAACTTCAGTAGTAATGACCACCATTTTTCTCCATCATTGCTCCATGT
[2]
  activity: 1 integration events

B8: lettuce pseudo-attB 207599470 (dsDNA)
DNA 1: CAATGGTGAATATAGTCCGGCGACCAACTCTGTCCACTATCAGCAACGATAAAAAGGTCATGCTAAGACCCACAAGCCCAGTCACCACTGCTGACATAAG
DNA 2: CTTATGTCAGCAGTGGTGACTGGGCTTGTGGGTCTTAGCATGACCTTTTTATCGTTGCTGATAGTGGACAGAGTTGGTCGCCGGACTATATTCACCATTG
[1]
  activity: 7 integration events

B9: lettuce pseudo-attB 328302882 (dsDNA)
DNA 1: TCCGTCACAAATTGCATCACTACGACTAAGATCTTCATCAATGATTCTATTAAGGAGATTCTTACATTGAAGGAGAAGTTACATAAATTCTTTATTATTT
DNA 2: AAATAATAAAGAATTTATGTAACTTCTCCTTCAATGTAAGAATCTCCTTAATAGAATCATTGATGAAGATCTTAGTCGTAGTGATGCAATTTGTGACGGA
[1]
  activity: 2 integration events

B10: lettuce pseudo-attB 411877132 (dsDNA)
DNA 1: ATAAGTTTAGATCTTATTGAACTAGGCTTGTGGTGCTTGTTTAAGGCCATAAATCGCCTTATTCAAGCGACAAAAATGAGACGAATAGGTGGAGTCTTCA
DNA 2: TGAAGACTCCACCTATTCGTCTCATTTTTGTCGCTTGAATAAGGCGATTTATGGCCTTAAACAAGCACCACAAGCCTAGTTCAATAAGATCTAAACTTAT
[1]
  activity: 2 integration events

B11: N. benthamiana pseudo-attB Niben101Scf04574 (dsDNA)
DNA 1: TAGGCTTACATTCCTGATGTACTATCCCATTATGCAATAATAAAGATGCAAAATAGGAAATGTCATTGACAGCTACGAGATCTATCTTTATTGATTCACT
DNA 2: AGTGAATCAATAAAGATAGATCTCGTAGCTGTCAATGACATTTCCTATTTTGCATCTTTATTATTGCATAATGGGATAGTACATCAGGAATGTAAGCCTA
[2]
  activity: 1 integration events

B12: N. benthamiana pseudo-attB Niben101Scf04030 (dsDNA)
DNA 1: TTGCTGTCTTTTCATACTTTTCTAAGTTGAAAGTACTTGAAAGTACGACCAAGAAAATGATTATATTTGACACAGAAAATGCAAGGTACTTTGAATGTGA
DNA 2: TCACATTCAAAGTACCTTGCATTTTCTGTGTCAAATATAATCATTTTCTTGGTCGTACTTTCAAGTACTTTCAACTTAGAAAAGTATGAAAAGACAGCAA
[2]
  activity: 2 integration events
